Data: patent publication US20240092890A1 (JUNTENDO EDUCATIONAL FOUNDATION, published 2024)

T1: protein having an Fc region and a His-tag added to the N-terminus of SEQ ID NO: 1
T1 construct: also called mutant CALR protein (antigen of the BLItz measurement); not shown: Fc region and His-tag at the N-terminus
T1 chain: RRMMRTKMRMRRM


Biological target: T1, protein having an Fc region and a …
Assay: BLItz biolayer interferometry, Fc/His-SEQ ID NO: 1 protein on the biosensor
Procedure: As another method, measurements were performed using the molecular interaction analysis system BLItz (ForteBio), which applies biolayer interferometry […]. Specifically, a protein having an Fc region and a His-tag added to the N-terminus of SEQ ID NO: 1 was immobilized at a concentration of 0.1 mg/mL using the Anti-Penta-HIS or ProteinA biosensor (ForteBio). Subsequently, the antibodies 1 to 114 made were prepared at a concentration of 500, 100, and 50 nM and reacted to acquire the dissociation constant.

Kd	Binder
< 1 pM	Antibody 112 (bispecific antibody, human IgG1, kappa, L234A L235A) chain 1: not shown chain 2: DIQMTQSPSSLSASVGDRVTITCLASEDIYSYLAWYQQKPGKAPKLLIFAANRLQDGVPSRFSGSGSGTDFTLTISSLQPEDFATYYCLQGSKFPYTFGPGTKVDIKGGGGSGGGGSGGGGSQVQLVQSGAEVKKPGSSVKVSCKASGYTFTRNFIHWIRQAPGQGLEWIGWIFPGDADTEYNQKFSGRATITADKSTSTAYMELSSLRSEDTAVYYCARGNYNYEYFDYWGQGTMVTVSSDKTHTCPPCPAPEAAGGPSVFLFPPKPKDTLMISRTPEVTCVVVDVSHEDPEVKFNWYVDGVEVHNAKTKPREEQYNSTYRVVSVLTVLHQDWLNGKEYKCKVSNKALPAPIEKTISKAKGQPREPQVCTLPPSREEMTKNQVSLSCAVKGFYPSDIAVEWESNGQPENNYKTTPPVLDSDGSFFLVSKLTVDKSRWQQGNVFSCSVMHEALHNHYTQKSLSLSPGK chain 3: DIQMTQSPSSLSASVGDRVTITCLASEDIYSYLAWYQQKPGKAPKLLIFAANRLQDGVPSRFSGSGSGTDFTLTISSLQPEDFATYYCLQGSKFPYTFGPGTKVDIKRTVAAPSVFIFPPSDEQLKSGTASVVCLLNNFYPREAKVQWKVDNALQSGNSQESVTEQDSKDSTYSLSSTLTLSKADYEKHKVYACEVTHQGLSSPVTKSFNRGECGGGGSGGGGSQVQLVQSGGGVVQPGRSLRLSCKASGYTFTRYTMHWVRQAPGKGLEWIGYINPSRGYTNYNQKVKDRFTISRDNSKNTAFLQMDSLRPEDTGVYFCARYYDDHYSLDYWGQGTPVTVSSGGGGSGGGGSGGGGSDIQMTQSPSSLSASVGDRVTITCSASSSVSYMNWYQQTPGKAPKRWIYDTSKLASGVPSRFSGSGSGTDYTFTISSLQPEDIATYYCQQWSSNPFTFGQGTKLQITR
32.4 pM	Antibody 113 (bispecific antibody, human IgG1, kappa, L234A L235A) chain 1: not shown chain 2: DIQMTQSPSSLSASVGDRVTITCLASEDIYSYLAWYQQKPGKAPKLLIFAANRLQDGVPSRFSGSGSGTDFTLTISSLQPEDFATYYCLQGSKFPYTFGPGTKVDIKGGGGSGGGGSGGGGSQVQLVQSGAEVKKPGSSVKVSCKASGYTFTRNFIHWIRQAPGQGLEWIGWIFPGDADTEYNQKFSGRATITADKSTSTAYMELSSLRSEDTAVYYCARGNYNYEYFDYWGQGTMVTVSSDKTHTCPPCPAPEAAGGPSVFLFPPKPKDTLMISRTPEVTCVVVDVSHEDPEVKFNWYVDGVEVHNAKTKPREEQYNSTYRVVSVLTVLHQDWLNGKEYKCKVSNKALPAPIEKTISKAKGQPREPQVCTLPPSREEMTKNQVSLSCAVKGFYPSDIAVEWESNGQPENNYKTTPPVLDSDGSFFLVSKLTVDKSRWQQGNVFSCSVMHEALHNHYTQKSLSLSPGK chain 3: DIQMTQSPSSLSASVGDRVTITCLASEDIYSYLAWYQQKPGKAPKLLIFAANRLQSGVPSRFSGSGSGTDFTLTISSLQPEDFATYYCLQGSKFPYTFGPGTKVDIKRTVAAPSVFIFPPSDEQLKSGTASVVCLLNNFYPREAKVQWKVDNALQSGNSQESVTEQDSKDSTYSLSSTLTLSKADYEKHKVYACEVTHQGLSSPVTKSFNRGECGGGGSGGGGSQVQLVQSGGGVVQPGRSLRLSCKASGYTFTRYTMHWVRQAPGKGLEWIGYINPSRGYTNYNQKVKDRFTISRDNSKNTAFLQMDSLRPEDTGVYFCARYYDDHYSLDYWGQGTPVTVSSGGGGSGGGGSGGGGSDIQMTQSPSSLSASVGDRVTITCSASSSVSYMNWYQQTPGKAPKRWIYDTSKLASGVPSRFSGSGSGTDYTFTISSLQPEDIATYYCQQWSSNPFTFGQGTKLQITR
< 1 pM	Antibody 73 (bispecific antibody) chain 1: not shown chain 2: DIQMTQSPSFVSASVGDRVTITCLASEDIYSYLAWYQQKPGKAPKLLIFAANRLQSGVPSRFSGGGSGTGFTLTISSLQPEDFATYFCLQGSKFPYTFGQGTKLEINRTVAAPSVFIFPPSDEQLKSGTASVVCLLNNFYPREAKVQWKVDNALQSGNSQESVTEQDSKDSTYSLSSTLTLSKADYEKHKVYACEVTHQGLSSPVTKSFNRGEC
< 1 pM	Antibody 97 (bispecific antibody) chain 1: not shown chain 2: DIQMTQSPSSLSASVGDRVTITCLASEDIYSYLAWYQQKPGKAPKLLIFAANRLQDGVPSRFSGSGSGTDFTLTISSLQPEDFATYYCLQGSKFPYTFGPGTKVDIKRTVAAPSVFIFPPSDEQLKSGTASVVCLLNNFYPREAKVQWKVDNALQSGNSQESVTEQDSKDSTYSLSSTLTLSKADYEKHKVYACEVTHQGLSSPVTKSFNRGEC
< 1 pM	Antibody 96 (bispecific antibody) chain 1: not shown chain 2: DIQMTQSPSSLSASVGDRVTITCLASEDIYSYLAWYQQKPGKAPKLLIFAANRLQDGVPSRFSGSGSGTDFTLTISSLQPEDFATYYCLQGSKFPYTFGPGTKVDIKRTVAAPSVFIFPPSDEQLKSGTASVVCLLNNFYPREAKVQWKVDNALQSGNSQESVTEQDSKDSTYSLSSTLTLSKADYEKHKVYACEVTHQGLSSPVTKSFNRGEC
< 1 pM	Antibody 98 (bispecific antibody) chain 1: not shown chain 2: DIQMTQSPSSLSASVGDRVTITCLASEDIYSYLAWYQQKPGKAPKLLIFAANRLQDGVPSRFSGSGSGTDFTLTISSLQPEDFATYYCLQGSKFPYTFGPGTKVDIKRTVAAPSVFIFPPSDEQLKSGTASVVCLLNNFYPREAKVQWKVDNALQSGNSQESVTEQDSKDSTYSLSSTLTLSKADYEKHKVYACEVTHQGLSSPVTKSFNRGEC
< 1 pM	Antibody 95 (bispecific antibody) chain 1: not shown chain 2: DIQMTQSPSSLSASVGDRVTITCLASEDIYSYLAWYQQKPGKAPKLLIFAANRLQDGVPSRFSGSGSGTDFTLTISSLQPEDFATYYCLQGSKFPYTFGPGTKVDIKRTVAAPSVFIFPPSDEQLKSGTASVVCLLNNFYPREAKVQWKVDNALQSGNSQESVTEQDSKDSTYSLSSTLTLSKADYEKHKVYACEVTHQGLSSPVTKSFNRGEC
< 1 pM	Antibody 99 (bispecific antibody) chain 1: not shown chain 2: DIQMTQSPSSLSASVGDRVTITCLASEDIYSYLAWYQQKPGKAPKLLIFAANRLQDGVPSRFSGSGSGTDFTLTISSLQPEDFATYYCLQGSKFPYTFGPGTKVDIKRTVAAPSVFIFPPSDEQLKSGTASVVCLLNNFYPREAKVQWKVDNALQSGNSQESVTEQDSKDSTYSLSSTLTLSKADYEKHKVYACEVTHQGLSSPVTKSFNRGEC
< 1 pM	Antibody 87 (bispecific antibody) chain 1: not shown chain 2: DIQMTQSPSSLSASVGDRVTITCLASEDIYSYLAWYQQKPGKAPKLLIFAANRLQSGVPSRFSGSGSGTDFTLTISSLQPEDFATYYCLQGSKFPYTFGPGTKVDIKRTVAAPSVFIFPPSDEQLKSGTASVVCLLNNFYPREAKVQWKVDNALQSGNSQESVTEQDSKDSTYSLSSTLTLSKADYEKHKVYACEVTHQGLSSPVTKSFNRGEC
< 1 pM	Antibody 93 (bispecific antibody) chain 1: not shown chain 2: DIQMTQSPSSLSASVGDRVTITCLASEDIYSYLAWYQQKPGKAPKLLIFAANRLQSGVPSRFSGSGSGTDFTLTISSLQPEDFATYYCLQGSKFPYTFGPGTKVDIKRTVAAPSVFIFPPSDEQLKSGTASVVCLLNNFYPREAKVQWKVDNALQSGNSQESVTEQDSKDSTYSLSSTLTLSKADYEKHKVYACEVTHQGLSSPVTKSFNRGEC
< 1 pM	Antibody 81 (bispecific antibody) chain 1: not shown chain 2: DIQMTQSPSSLSASVGDRVTITCLASEDIYSYLAWYQQKPGKAPKLLIFAANRLQDGVPSRFSGSGSGTDFTLTISSLQPEDFATYYCLQGSKFPYTFGPGTKVDIKRTVAAPSVFIFPPSDEQLKSGTASVVCLLNNFYPREAKVQWKVDNALQSGNSQESVTEQDSKDSTYSLSSTLTLSKADYEKHKVYACEVTHQGLSSPVTKSFNRGEC
< 1 pM	Antibody 79 (bispecific antibody) chain 1: not shown chain 2: DIQMTQSPSFVSASVGDRVTITCLASEDIYSYLAWYQQKPGKAPKLLIFAANRLQDGVPSRFSGGGSGTGFTLTISSLQPEDFATYFCLQGSKFPYTFGQGTKLEIKRTVAAPSVFIFPPSDEQLKSGTASVVCLLNNFYPREAKVQWKVDNALQSGNSQESVTEQDSKDSTYSLSSTLTLSKADYEKHKVYACEVTHQGLSSPVTKSFNRGEC
